The values below come from PMC9633819 (Nature Communications, 2022).

Data set [1] is described as follows: SAXS Kratky plots. The conditions noted are these: glycan changed form; control: contactin 1 with complex glycans.
A short description of data set [2]: K562 cell clustering index. The settings on record: glycan changed form; control: untreated contactin 1 K562 cells.
Data set [3] in a line: K562 cell clustering, co-clustering ratio. The settings on record: glycan changed form; control: untreated contactin 1 and neurofascin 155 K562 cells.
Data set [4] has as its target T1, contactin 1^fe HM (full ectodomain, residues 21–996), C-terminally biotinylated SPR ligand (mouse, UniProt P12960 21-996, biotin on the C-terminal biotin acceptor peptide; N-linked high mannose glycans).
T1 chain: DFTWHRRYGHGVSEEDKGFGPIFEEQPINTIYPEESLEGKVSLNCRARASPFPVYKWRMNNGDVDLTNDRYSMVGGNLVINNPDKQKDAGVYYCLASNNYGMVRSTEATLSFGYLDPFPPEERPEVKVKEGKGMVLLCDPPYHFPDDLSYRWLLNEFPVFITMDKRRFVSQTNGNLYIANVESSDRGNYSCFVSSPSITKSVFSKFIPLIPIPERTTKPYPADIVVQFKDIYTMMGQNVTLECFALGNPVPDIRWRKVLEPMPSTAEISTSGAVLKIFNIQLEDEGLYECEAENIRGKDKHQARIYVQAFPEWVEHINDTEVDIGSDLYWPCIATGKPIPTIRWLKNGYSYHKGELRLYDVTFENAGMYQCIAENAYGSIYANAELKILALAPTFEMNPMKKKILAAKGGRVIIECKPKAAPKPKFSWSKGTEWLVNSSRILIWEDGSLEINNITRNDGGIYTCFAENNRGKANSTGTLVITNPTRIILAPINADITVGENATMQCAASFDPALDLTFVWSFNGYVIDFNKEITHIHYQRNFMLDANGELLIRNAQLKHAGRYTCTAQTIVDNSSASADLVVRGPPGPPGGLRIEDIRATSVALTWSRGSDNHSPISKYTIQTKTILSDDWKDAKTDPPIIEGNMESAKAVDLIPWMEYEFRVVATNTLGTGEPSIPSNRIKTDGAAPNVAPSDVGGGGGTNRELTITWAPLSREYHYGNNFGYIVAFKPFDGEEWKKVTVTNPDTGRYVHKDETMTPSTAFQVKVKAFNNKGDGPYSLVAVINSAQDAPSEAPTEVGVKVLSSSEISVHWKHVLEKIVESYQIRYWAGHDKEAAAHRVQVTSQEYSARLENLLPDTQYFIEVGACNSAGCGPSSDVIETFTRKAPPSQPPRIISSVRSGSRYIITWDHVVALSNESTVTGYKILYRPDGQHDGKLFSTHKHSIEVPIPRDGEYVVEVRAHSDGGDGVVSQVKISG
Nature of the data set: SPR. For orientation: Surface plasmon resonance follows binding to a sensor surface in real time, without labels.

Data set [5] deals with neurofascin 155^Ig1–6 (residues 25–633), high mannose glycans (mouse). Nature of the data set: SEC-MALS + other: SAXS; dimer to monomers; estimate from the concentration dependence of peak position, molecular weight and Rg; 25 mM HEPES pH 7.5, 150 mM NaCl.
Data set [6] has as its target contactin 1^Ig1–6 HM, C-terminally biotinylated SPR ligand (mouse) (UniProt P12960). Nature of the data set: SPR; SPR imaging (MX96 SPRi); C-terminally biotinylated contactin 1 ligands spotted on a P-STREP SensEye chip, neurofascin 155^Ig1–6 as analyte; 25 °C; 25 mM HEPES pH 7.5, 150 mM NaCl with 0.005% Tween-20; equilibrium response fitted with a 1:1 Langmuir model.

Several values for one entry are separate records, joined by “and”; a condition that tells them apart may be missing. Equal values may be shown once.

B1: contactin 1: high mannose glycans (GnTI- HEK293) (protein)
parent chain: MKMPLLVSHLLLISLTSCLGDFTWHRRYGHGVSEEDKGFGPIFEEQPINTIYPEESLEGKVSLNCRARASPFPVYKWRMNNGDVDLTNDRYSMVGGNLVINNPDKQKDAGVYYCLASNNYGMVRSTEATLSFGYLDPFPPEERPEVKVKEGKGMVLLCDPPYHFPDDLSYRWLLNEFPVFITMDKRRFVSQTNGNLYIANVESSDRGNYSCFVSSPSITKSVFSKFIPLIPIPERTTKPYPADIVVQFKDIYTMMGQNVTLECFALGNPVPDIRWRKVLEPMPSTAEISTSGAVLKIFNIQLEDEGLYECEAENIRGKDKHQARIYVQAFPEWVEHINDTEVDIGSDLYWPCIATGKPIPTIRWLKNGYSYHKGELRLYDVTFENAGMYQCIAENAYGSIYANAELKILALAPTFEMNPMKKKILAAKGGRVIIECKPKAAPKPKFSWSKGTEWLVNSSRILIWEDGSLEINNITRNDGGIYTCFAENNRGKANSTGTLVITNPTRIILAPINADITVGENATMQCAASFDPALDLTFVWSFNGYVIDFNKEITHIHYQRNFMLDANGELLIRNAQLKHAGRYTCTAQTIVDNSSASADLVVRGPPGPPGGLRIEDIRATSVALTWSRGSDNHSPISKYTIQTKTILSDDWKDAKTDPPIIEGNMESAKAVDLIPWMEYEFRVVATNTLGTGEPSIPSNRIKTDGAAPNVAPSDVGGGGGTNRELTITWAPLSREYHYGNNFGYIVAFKPFDGEEWKKVTVTNPDTGRYVHKDETMTPSTAFQVKVKAFNNKGDGPYSLVAVINSAQDAPSEAPTEVGVKVLSSSEISVHWKHVLEKIVESYQIRYWAGHDKEAAAHRVQVTSQEYSARLENLLPDTQYFIEVGACNSAGCGPSSDVIETFTRKAPPSQPPRIISSVRSGSRYIITWDHVVALSNESTVTGYKILYRPDGQHDGKLFSTHKHSIEVPIPRDGEYVVEVRAHSDGGDGVVSQVKISGVSTLSSSLLSLLLPSLGFLVYSEF
Regarding B1, the structure_or_conformation entry in data set [1] is given as “no change”.

B2: contactin 1: kifunensine (protein)
parent chain: B1 parent chain
B2: in data set [2], the “other: homophilic cell clustering” value is recorded as “no change”.

B3: contactin 1: kifunensine on both cell types (protein)
parent chain: B1 parent chain
Regarding B3, the “other: heterophilic cell co-clustering” value in data set [3] is “no change”.

B4: neurofascin 155^Ig1–6 (residues 25–633), high mannose glycans (domain or fragment)
chain: IEIPMDLTQPPTITKQSVKDHIVDPRDNILIECEAKGNPAPSFHWTRNSRFFNIAKDPRVSMRRRSGTLVIDFRSGGRPEEYEGEYQCFARNKFGTALSNRIRLQVSKSPLWPKENLDPVVVQEGAPLTLQCNPPPGLPSPVIFWMSSSMEPITQDKRVSQGHNGDLYFSNVMLQDMQTDYSCNARFHFTHTIQQKNPFTLKVLTNNPYNDSSLRNHPDIYSARGVAERTPSFMYPQGTSSSQMVLRGMDLLLECIASGVPTPDIAWYKKGGDLPSNKAKFENFNKALRITNVSEEDSGEYFCLASNKMGSIRHTISVRVKAAPYWLDEPKNLILAPGEDGRLVCRANGNPKPTVQWMVNGEPLQSAPPNPNREVAGDTIIFRDTQISSRAVYQCNTSNEHGYLLANAFVSVLDVPPRMLSARNQLIRVILYNRTRLDCPFFGSPIPTLRWFKNGQGSNLDGGNYHVYENGSLEIKMIRKEDQGIYTCVATNILGKAENQVRLEVKDPTRIYRMPEDQVAKRGTTVQLECRVKHDPSLKLTVSWLKDDEPLYIGNRMKKEDDSLTIFGVAERDQGSYTCMASTELDQDLAKAYLTVLADQATPTNRLAA
modifications: N-linked high mannose glycans (glycans at Asn316, Asn420, Asn457 and Asn494 are named)
For B4, the Kd in data set [4] is 270 nM and 310 nM; in data set [5], 5000 to 30000 nM; in data set [6] it was 220 nM.

The Kd is the constant that tells how readily two partners part at equilibrium.
